Assay [1] has as its target T1, human ecto-nucleoside triphosphate diphosphohydrolase-3 (NTPDase3) (human, UniProt O75355 1-529).
T1 chain: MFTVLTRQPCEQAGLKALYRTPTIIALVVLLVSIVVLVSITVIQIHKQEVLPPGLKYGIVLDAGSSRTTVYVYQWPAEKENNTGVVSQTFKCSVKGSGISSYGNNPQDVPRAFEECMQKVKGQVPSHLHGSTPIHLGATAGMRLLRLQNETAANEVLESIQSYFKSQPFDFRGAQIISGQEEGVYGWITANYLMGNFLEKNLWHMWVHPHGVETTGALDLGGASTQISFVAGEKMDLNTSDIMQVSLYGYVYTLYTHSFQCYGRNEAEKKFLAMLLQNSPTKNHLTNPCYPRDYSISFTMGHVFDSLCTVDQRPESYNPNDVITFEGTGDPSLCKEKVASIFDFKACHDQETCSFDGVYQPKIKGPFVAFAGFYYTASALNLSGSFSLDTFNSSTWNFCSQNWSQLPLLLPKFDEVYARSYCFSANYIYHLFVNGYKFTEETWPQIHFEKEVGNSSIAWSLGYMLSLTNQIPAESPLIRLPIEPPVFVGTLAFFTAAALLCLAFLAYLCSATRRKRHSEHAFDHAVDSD
Kind of assay: flow cytometry; RT4 cells.

Assay [2] concerns the target T1, human ecto-nucleoside triphosphate …. The assay is described as follows: flow cytometry; CHO-hENTPD3 cells. On the technique in general: A flow cytometer gives signals particle by particle.
The target is the same in assay [3]. Kind of assay: flow cytometry; CHO-hENTPD3 cells.
The target is the same in assay [4]. Kind of assay: flow cytometry; COS7-hENTPD3 cells.
Assay [5] shares this target. The assay is described as follows: flow cytometry; COS7-hENTPD3 cells.
The target is the same in assay [6]. Kind of assay: flow cytometry; HEK293T-hENTPD3 cells.
Assay [7] has the same target. Kind of assay: flow cytometry; HEK293T-hENTPD3 cells.
For assay [8] the target is unchanged. Kind of assay: flow cytometry; CHO-hENTPD3 cells, 2h at 37°C.
Assay [9] shares this target. The assay is described as follows: flow cytometry; CHO-hENTPD3 cells, 20 min at 4°C.
Assay [10] addresses r3E9. The assay is described as follows: flow cytometry; RT4 cells; rabbit mAb.

Results on 2 molecules are retold here after US20240052061A1 (published 2024).

B1: 8E1 Hu/Ra (antibody, V domains shown)
VH: QSVEESGGRLVTPGTPLTLTCTVSGFSLSSYAMGWVRQAPGKGLEFIGIISYSGNTYYASWAKGRFPISKTSSTTVDLKMTSPTTEDTANYFCARARYGGYSTNSYYLNIWGPGTLVTVSS
VL: DVVMTQTPASVEAAVGGTVTINCQASENIYRVLAWYQQKPGQRPKLLIYGASNLESGVPSRFKGSGSGTDYTLTISDLECDDAATYYCQGVVYNSDDSAFGGGTEVVVKG
In general, Kd refers to the free concentration of one partner at which half of the binding sites on the other are occupied at equilibrium, for simple one-to-one binding. The low end stands for a tighter complex, the high end for a looser complex. In the case of B1, the equilibrium dissociation constant (Kd) in assay [1] worked out at 0.06 nM; in [2], 1.59 nM; in assay [3], 0.43 nM; in assay [4], 0.31 nM; in assay [5] it was 0.54 nM; in assay [6], 0.33 nM. Moreover, the Kd worked out at 2.76 nM in assay [7], 1.02 nM in [8] and 1.82 nM in assay [9].

B2: hENTPD3 (RT4 cells) (enzyme)
chain: T1 chain
Take B2: in assay [10], the Kd worked out at 0.22 nM.
